Consider three molecules from patent publication US20240383982A1 (Genmab, published 2024).

The target in assay [1] is T1, human B7H4, full length, on cells (human, UniProt Q7Z7D3 25-282).
T1 construct: Uniprot Q7Z7D3; Used for transfected HEK cells and for the B7H4-expressing human tumor cell lines (endogenous B7H4); also called VTCN1
T1 sequence: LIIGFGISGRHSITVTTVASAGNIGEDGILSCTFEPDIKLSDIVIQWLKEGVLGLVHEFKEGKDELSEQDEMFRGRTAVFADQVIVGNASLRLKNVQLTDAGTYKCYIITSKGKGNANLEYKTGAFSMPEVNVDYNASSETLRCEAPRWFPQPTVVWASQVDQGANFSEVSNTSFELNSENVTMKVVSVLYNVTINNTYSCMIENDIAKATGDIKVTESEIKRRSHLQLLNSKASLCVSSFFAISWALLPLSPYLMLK
Nature of the assay: flow cytometry on SK-BR3 tumor cells [panel SK-BR3 cells]. How it is done: (§1) Cells (3×10⁴ cells/well) were incubated in polystyrene 96-well round-bottom plates (Greiner bio-one, cat. no. 650180) with serial dilutions of antibodies (ranging from 0.000458 to 30 μg/mL in 4-fold dilution steps) in 100 μL PBS/0.1% BSA/0.02% azide (staining buffer) at 4° C. for 30 min. Experiments were performed in technical duplicate. After washing twice in staining buffer, cells were incubated in 50 μL secondary antibody at 4° C. for 30 min. As a secondary antibody, R-Phycoerythrin (PE)-conjugated goat-anti-human IgG F(ab′)₂ (1:500 in FACS buffer; Jackson ImmunoResearch Laboratories, Inc., West Grove, PA, cat. no. 109-116-098), was used. Cells were washed twice in staining buffer, re-suspended in 30 μL FACS buffer containing Topro-3 (1:10,000 dilution) and analyzed on an iQue Screener (Intellicyt Corporation, USA). Binding curves were analyzed using non-linear regression (sigmoidal dose-response with variable slope) using GraphPad Prism V7.02 software (GraphPad Software, San Diego, CA, USA).
(§2) Binding was analyzed by flow cytometry as described above.
Background: Flow cytometry measures light scatter and fluorescence of single cells or particles in a stream.

Assay [2] has as its target T1, human B7H4, full length, on cells. Nature of the assay: flow cytometry on HCC1954 tumor cells [panel HCC1954 cells]. How it is done:
as §1, §2

The target in assay [3] is T2, pig (Sus scrofa) B7H4, full length, on HEK-293F cells (pig, UniProt Q7Z7D3 26-282 (human entry)).
T2 construct: Uniprot F1SAY4; also called pig B7H4
T2 chain: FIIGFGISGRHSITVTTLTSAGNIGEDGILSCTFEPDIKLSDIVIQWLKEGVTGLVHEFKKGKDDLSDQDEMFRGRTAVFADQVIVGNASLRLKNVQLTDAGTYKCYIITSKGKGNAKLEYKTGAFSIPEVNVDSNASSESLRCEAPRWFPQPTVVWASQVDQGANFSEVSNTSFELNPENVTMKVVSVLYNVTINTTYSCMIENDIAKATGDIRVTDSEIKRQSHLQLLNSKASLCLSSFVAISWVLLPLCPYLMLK
The assay can be described thus: flow cytometry, HEK-293F cells transiently transfected with pig B7H4 [panel Pig B7H4]. Here is the method: as §1

Assay [4] deals with T3, mouse (Mus musculus) B7H4, full length, on HEK-293F cells (mouse, UniProt Q7TSP5 25-257).
T3 construct: Uniprot Q7TSP5; also called mouse B7H4
T3 sequence: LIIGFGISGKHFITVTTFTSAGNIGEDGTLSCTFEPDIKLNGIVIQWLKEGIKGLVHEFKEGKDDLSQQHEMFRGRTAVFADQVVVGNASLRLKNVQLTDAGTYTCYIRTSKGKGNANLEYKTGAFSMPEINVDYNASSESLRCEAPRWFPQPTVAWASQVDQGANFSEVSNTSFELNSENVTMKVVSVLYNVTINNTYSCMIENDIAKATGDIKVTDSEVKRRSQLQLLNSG
The assay can be described thus: flow cytometry, HEK-293F cells transfected with mouse B7H4 [panel Mouse B7H4]. How it is done:
as §1

Assay [5] has as its target T1, human B7H4, full length, on cells. Nature of the assay: flow cytometry, HEK-293F cells transfected with human B7H4 [panel Human B7H4]. How it is done:
as §1

Assay [6] concerns the target T2, pig (Sus scrofa) B7H4, full length, on …. The assay can be described thus: flow cytometry, HEK-293F cells transiently transfected with pig B7H4, PE anti-human IgG F(ab')2 [panel Pig B7H4]. How it is done:
as §1

In assay [7] the target is T4, dog (Canis familiaris) B7H4, full length, on HEK-293F cells (dog, UniProt Q7Z7D3 25-282 (human entry)).
T4 construct: Uniprot F1P8R9; also called dog B7H4
T4 chain: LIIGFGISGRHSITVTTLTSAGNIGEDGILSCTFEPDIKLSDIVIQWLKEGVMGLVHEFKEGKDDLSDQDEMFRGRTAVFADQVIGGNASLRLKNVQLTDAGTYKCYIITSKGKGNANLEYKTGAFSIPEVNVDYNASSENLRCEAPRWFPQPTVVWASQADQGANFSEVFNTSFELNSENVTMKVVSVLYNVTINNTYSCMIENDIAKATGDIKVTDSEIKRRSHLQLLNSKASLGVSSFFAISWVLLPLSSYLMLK
The assay can be described thus: flow cytometry, transiently transfected HEK-293F cells.

Assay [8] has as its target T5, rabbit (Oryctolagus cuniculus) B7H4, full length, on HEK-293F cells (rabbit, UniProt Q7Z7D3 25-282 (human entry)).
T5 construct: Uniprot G1TQE8; also called rabbit B7H4
T5 chain: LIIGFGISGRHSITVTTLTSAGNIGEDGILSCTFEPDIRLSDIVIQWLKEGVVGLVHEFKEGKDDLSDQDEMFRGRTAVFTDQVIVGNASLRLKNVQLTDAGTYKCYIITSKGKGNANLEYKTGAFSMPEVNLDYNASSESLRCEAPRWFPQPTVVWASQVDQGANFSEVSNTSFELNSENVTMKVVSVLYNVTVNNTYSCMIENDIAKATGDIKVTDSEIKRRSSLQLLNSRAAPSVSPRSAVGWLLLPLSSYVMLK
The assay is described as above.

For assay [9], the target named is T2, pig (Sus scrofa) B7H4, full length, on …. The assay can be described thus: flow cytometry, HEK-293F cells transfected with pig B7H4 [panel Pig B7H4]. How it is done: as §1

B1: bsIgG1-huCD3-H101G-FEALxB7H4-C1-N52S-FEAR (bispecific antibody)
heavy 1: not shown
light 1: not shown
heavy 2: QVQLQQWGAGLLKPSETLSLTCAVYGGSFSGYYWSWIRQPPGKGLEWIGEISHSGSTNYNPSLKSRVTISIDTSKNQFSLKLTSVTAADTAVFYCARGLFNWNFDSWGQGTLVTVSSASTKGPSVFPLAPSSKSTSGGTAALGCLVKDYFPEPVTVSWNSGALTSGVHTFPAVLQSSGLYSLSSVVTVPSSSLGTQTYICNVNHKPSNTKVDKRVEPKSCDKTHTCPPCPAPEFEGGPSVFLFPPKPKDTLMISRTPEVTCVVVAVSHEDPEVKFNWYVDGVEVHNAKTKPREEQYNSTYRVVSVLTVLHQDWLNGKEYKCKVSNKALPAPIEKTISKAKGQPREPQVYTLPPSREEMTKNQVSLTCLVKGFYPSDIAVEWESNGQPENNYKTTPPVLDSDGSFFLYSRLTVDKSRWQQGNVFSCSVMHEALHNHYTQKSLSLSPGK
light 2: DIQMTQSPSSLSASVGDRVTITCRASQGIRNDLGWYQQKPGKAPKRLIYGASSLQSGVPSRFSGSGSGTEFTLTISSLQPEDFATYYCLQHNSYPRTFGQGTTVEIKRTVAAPSVFIFPPSDEQLKSGTASVVCLLNNFYPREAKVQWKVDNALQSGNSQESVTEQDSKDSTYSLSSTLTLSKADYEKHKVYACEVTHQGLSSPVTKSFNRGEC
notes: also called bslgG1-huCD3-H101G-FEALxB7H4-C1-N52S-FEAR; BslgG1-huCD3-H101G-FEALxB7H4-C1-N52S-FEAR
Usually EC50 (read off the curve) stands for the concentration that produces a half-maximal response. Lower therefore signals higher potency in that assay. Regarding B1, the “EC50 (read off the curve)” value in [1] is roughly 1 µg/mL; in assay [2] it was roughly 3 µg/mL. Moreover, in assay [3], the binding result is recorded as “no binding (tested: 30 µg/ml)”.

B2: IgG1-B7H4-C1-N52S-FEAR (antibody, V domains shown)
VH: QVQLQQWGAGLLKPSETLSLTCAVYGGSFSGYYWSWIRQPPGKGLEWIGEISHSGSTNYNPSLKSRVTISIDTSKNQFSLKLTSVTAADTAVFYCARGLFNWNFDSWGQGTLVTVSS
VL: DIQMTQSPSSLSASVGDRVTITCRASQGIRNDLGWYQQKPGKAPKRLIYGASSLQSGVPSRFSGSGSGTEFTLTISSLQPEDFATYYCLQHNSYPRTFGQGTTVEIKR
notes: Full length human IgG1 with L234F, L235E, D265A, K409R (FEAR) heavy chain constant region and kappa light chain; bivalent, monospecific; also called IgG1-B7H4-C1-052S-FEAR
For the molecule B2, the results for the “EC50 (read off the curve)” value in [4] and in [5] were roughly 0.3 µg/mL and roughly 0.05 µg/mL, respectively. Also, the binding result in assay [6] is “binds”.

B3: IgG1-B7H4-C5-FEAR (antibody, V domains shown)
VH: QLQLQESGPGLVKPSETLSLTCTVSGGSIKSGSYYWGWIRQPPGKGLEWIGNIYYSGSTYYNPSLRSRVTISVDTSKNQFSLKLSSVTAADTAVYYCAREGSYPNQFDPWGQGTLVTVSS
VL: EIVMTQSPATLSVSPGERATLSCRASQSVSSNLAWYQQKPGQAPRLLIYGASTRATGIPARFSGSGSGTEFTLTISSLQSEDFAVYYCQQYHSFPFTFGGGTKVEIKR
notes: Full length IgG1 FEAR, kappa; variable domains from US20190085080A1
B3: the binding result in assay [7], in assay [8] and in assay [9] was “binds” throughout.
